In PMC11629141:
Where a chain is given by its changes, count along the chain named. In names and notes the source's numbering stands. Blank lines part the entries; values can stand above or below the binder they belong to.

Experiments:
[1] = target: 6G11 (BI‐1206), full‐length antibody containing the PGLALA Fc mutations (human); experiment: BLI; 6G11 (5 µg/mL) loaded on Protein A tips; original or mutated S2B scFv 500-7.8 nM in 1:2 dilutions; association and dissociation 180 s each
[2] = target: 6G11 (BI‐1206), full‐length antibody containing the PGLALA Fc mutations (human); experiment: ELISA; 6G11 coated (5 µg/mL, MaxiSorp, overnight 4°C); scFv 500 to 0.19 nM, 1 h RT; detection with StrepTactin-HRP

Sequence of 6G11 (BI‐1206), full‐length antibody containing the PGLALA Fc mutations (human) (heavy, as listed by the source, chain 1 of 2): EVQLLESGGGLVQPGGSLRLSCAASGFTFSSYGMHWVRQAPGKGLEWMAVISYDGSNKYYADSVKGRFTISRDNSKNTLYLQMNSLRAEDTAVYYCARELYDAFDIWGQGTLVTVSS
Sequence of 6G11 (BI‐1206), full‐length antibody containing the PGLALA Fc mutations (human) (light, as listed by the source, chain 2 of 2): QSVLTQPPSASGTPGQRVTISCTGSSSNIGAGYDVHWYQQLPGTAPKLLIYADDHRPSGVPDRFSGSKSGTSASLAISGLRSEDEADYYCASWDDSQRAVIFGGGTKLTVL

B1: S2B R101A scFv, solitary (scFv, V domains shown)
VH: AVTLDESGGGLQTPGGGLSLVCKASGFTFSSYSMVWVRQAPSKRLEWVAGIYSSATWTYYAPAVKGRATISRDNGQSTVRLQLNDLRAEDTGTYFCAKTSASGWTAYSASAIDAWGHGTEVIV
VL: ALTQPSSVSANPGETVKITCSGGSSYYGWYQQKSPGSAPVTVIYSNDKRPSDIPSRFSGSTSGSTATLTITGVQADDEAVYFCGGYDSNIHGGIFGAGTTLTVL
fold decrease in affinity against the original S2B [1]: 6 fold

B3: S2B scFv (blocking anti‐6G11 scFv clone 2), solitary (scFv, V domains shown)
VH: B1 VH with A101R
VL: B1 VL
EC50 [2]: 0.0287 µM

Results, then the binder that gave them:

fold decrease in binding against the original S2B [1]: 4 fold
B2: S2B Y52A scFv, solitary (scFv, V domains shown)
VH: B1 VH with Y52A, A101R
VL: B1 VL

fold decrease in affinity against the original S2B [1]: 10 fold
B4: S2B W104A scFv, solitary (scFv, V domains shown)
VH: B1 VH with A101R, W104A
VL: B1 VL

EC50 [2]: 0.0039 µM
B5: S2N scFv (non‐blocking anti‐6G11 scFv clone 2), solitary (scFv, V domains shown)
VH: AVTLDESGGGLQTPGGGLSLVCKASGFSFSDRGMQWVRQAPGKGLEWVAGIDDDDNNTWYATAVKGRATISRDNGQSTVRLQLNSLRAEDTGTYYCAKTPTSYYWGAAEIDAWGHGTEVIV
VL: ALTQPSSVSANPGETVKITCSGSSGSYGWYQQKAPGSAPVTVIYDNNNRPSNIPSRFSGSLSGSTNTLTITGVQADDEAVYFCGSYEGSSYVGIFGAGTTLTVL
